Reference: patent US20240263208A1, “CYTOCHROME P450 ENZYME” (HYPHA DISCOVERY LTD., priority 2021, published 2024)

B1: M30: P450SeuC10 with L198F and T109F double mutations, SEQ ID NO: 126 (protein)
chain: MKIGTTHLTRLRGLSMTELTDITGPAAQAETVAFPQDRTCPYHPPTGYDPLRDGRPLSRVTLYDGREVWLVTAQATARALLADPRLSTDRRRDGFPVPTPRFAAGRDRFLALLGLDDPEHHRQRRLLIPSFTLKRATAQRPWIQRIVDELLDAMIARGPVADLVSAFALPVPSMVICELLGVPYADHEFFEEQSRRLFRGPTGADTTDARDRLEAYLGDLIDAKAKEAEPGDGILDDLVHNRLRAGELDRSVLVSLAVILLVAGHETTANMISLGTYTLLQHPERLAELRADPSLLPAVVEELLRMLSIAEGLQRLALEDIEIDGITIRAGEGVLFSTSVINRDTAVYEDPDDLDFHRADRHHVAFGFGIHQCLGQNLARAELEIALGSLFTRLPGLRLAAPAEEIPFKPGDTVQGMLELPVTW
modifications: SeuC10M30
B2: M32: P450SeuC10 with T109F and I259L double mutations, SEQ ID NO: 130 (protein)
chain: MKIGTTHLTRLRGLSMTELTDITGPAAQAETVAFPQDRTCPYHPPTGYDPLRDGRPLSRVTLYDGREVWLVTAQATARALLADPRLSTDRRRDGFPVPTPRFAAGRDRFLALLGLDDPEHHRQRRLLIPSFTLKRATAQRPWIQRIVDELLDAMIARGPVADLVSAFALPVPSMVICELLGVPYADHEFFEEQSRRLLRGPTGADTTDARDRLEAYLGDLIDAKAKEAEPGDGILDDLVHNRLRAGELDRSVLVSLAVLLLVAGHETTANMISLGTYTLLQHPERLAELRADPSLLPAVVEELLRMLSIAEGLQRLALEDIEIDGITIRAGEGVLFSTSVINRDTAVYEDPDDLDFHRADRHHVAFGFGIHQCLGQNLARAELEIALGSLFTRLPGLRLAAPAEEIPFKPGDTVQGMLELPVTW
modifications: SeuC10M32
B3: M53: P450SeuC10 with T109P mutation, SEQ ID NO: 124 (protein)
chain: MKIGTTHLTRLRGLSMTELTDITGPAAQAETVAFPQDRTCPYHPPTGYDPLRDGRPLSRVTLYDGREVWLVTAQATARALLADPRLSTDRRRDGFPVPTPRFAAGRDRPLALLGLDDPEHHRQRRLLIPSFTLKRATAQRPWIQRIVDELLDAMIARGPVADLVSAFALPVPSMVICELLGVPYADHEFFEEQSRRLLRGPTGADTTDARDRLEAYLGDLIDAKAKEAEPGDGILDDLVHNRLRAGELDRSVLVSLAVILLVAGHETTANMISLGTYTLLQHPERLAELRADPSLLPAVVEELLRMLSIAEGLQRLALEDIEIDGITIRAGEGVLFSTSVINRDTAVYEDPDDLDFHRADRHHVAFGFGIHQCLGQNLARAELEIALGSLFTRLPGLRLAAPAEEIPFKPGDTVQGMLELPVTW
modifications: SeuC10M53
B4: SeuC10M26: P450SeuC10 with T109I mutation, SEQ ID NO: 56 (protein)
chain: MKIGTTHLTRLRGLSMTELTDITGPAAQAETVAFPQDRTCPYHPPTGYDPLRDGRPLSRVTLYDGREVWLVTAQATARALLADPRLSTDRRRDGFPVPTPRFAAGRDRILALLGLDDPEHHRQRRLLIPSFTLKRATAQRPWIQRIVDELLDAMIARGPVADLVSAFALPVPSMVICELLGVPYADHEFFEEQSRRLLRGPTGADTTDARDRLEAYLGDLIDAKAKEAEPGDGILDDLVHNRLRAGELDRSVLVSLAVILLVAGHETTANMISLGTYTLLQHPERLAELRADPSLLPAVVEELLRMLSIAEGLQRLALEDIEIDGITIRAGEGVLFSTSVINRDTAVYEDPDDLDFHRADRHHVAFGFGIHQCLGQNLARAELEIALGSLFTRLPGLRLAAPAEEIPFKPGDTVQGMLELPVTW
modifications: SeuC10M26
B5: SeuC10M27: P450SeuC10 with T109V mutation, SEQ ID NO: 58 (protein)
chain: MKIGTTHLTRLRGLSMTELTDITGPAAQAETVAFPQDRTCPYHPPTGYDPLRDGRPLSRVTLYDGREVWLVTAQATARALLADPRLSTDRRRDGFPVPTPRFAAGRDRVLALLGLDDPEHHRQRRLLIPSFTLKRATAQRPWIQRIVDELLDAMIARGPVADLVSAFALPVPSMVICELLGVPYADHEFFEEQSRRLLRGPTGADTTDARDRLEAYLGDLIDAKAKEAEPGDGILDDLVHNRLRAGELDRSVLVSLAVILLVAGHETTANMISLGTYTLLQHPERLAELRADPSLLPAVVEELLRMLSIAEGLQRLALEDIEIDGITIRAGEGVLFSTSVINRDTAVYEDPDDLDFHRADRHHVAFGFGIHQCLGQNLARAELEIALGSLFTRLPGLRLAAPAEEIPFKPGDTVQGMLELPVTW
modifications: SeuC10M27

What was measured:
Format in all cases: biochemical
[1] = Oxidase activity testing against propanalol; details: for Average % conversion: substrate Propanalol, Batch 2
Description: (§1) Lyophilised material of recombinant P450, ferredoxin and ferredoxin reductase proteins was made as described in Example 4 and reconstituted in high purity water to the original volume. Biocatalysis was performed with shaking incubation at 27° C. in the following conditions: 100 mM potassium phosphate pH 8.0, 5 mM MgCl2 (both present in the reconstituted enzyme preparation) and 0.1 mg/ml substrate compound such as ambroxide (Sigma-Aldrich, UK), carbamazepine (Sigma-Aldrich, UK), diclofenac (Sigma-Aldrich, UK), tivantinib (MedChemtronica, Sweden), clarithromycin (Tokyo Chemical Industry, Japan), sclareol (Sigma-Aldrich, UK), celecoxib (LC Laboratories, USA), buparvaquone (Sigma-Aldrich, UK), BIRB796 (MedChemExpress, USA), vanoxerine (CiVentiChem, USA), valsartan (Tokyo Chemical Industry, Japan), ruxolitinib (LC Laboratories, USA), perindopril (Selleckchem, USA), solifenacin (Key Organics, UK), 7-ethoxycoumarin (Tokyo Chemical Industry, Japan), tofacitinib (LC Laboratories, USA), ebastine (Key Organics, UK), efavirenz (Key Organics, UK), propanalol (Sigma-Aldrich, UK) and tolbutamide (Key Organics, UK).
(§2) Concentrations of P450, ferredoxin and ferredoxin reductase were as extracted (Example 4). Reactions were initiated by addition of 10× stock of cofactor mixture (50 mM G6P, 10 mM NADP+, 10 UN/ml G6PDH) to provide a final volume of e.g., 10 μl to 90 μl for 100 μl total reaction volumes. After 16-20 hours, reactions were extracted with an equal volume of acetonitrile, centrifuged to remove precipitated proteins and conversion assessed by UPLC-MS analysis.
(§3) UPLC Data were Obtained as Follows: • Column: Acquity UPLC BEH Shield RP18 1.7 μm 2.1 mm i.d. 50 mm length • Solvents: H2O, B: Acetonitrile, both with 0.1% Formic acid • Flow rate: 1.0 ml/min • Detector: Waters Acquity UPLC PDA (UV-Vis detection) and Waters Acquity UPLC QDA (MS)
(§4) Representative results for the % conversions of various substrates to products by enzymes with mutations at position T109 or L198 and double mutants at T109 and 1129/L198 are shown in Table 4 below.

[2] = Oxidase activity testing against valsartan; details: for Average % conversion: substrate Valsartan, Batch 2
Description: as §1, §2, §3, §4

[3] = Oxidase activity testing against tolbutamide; details: for Average % conversion: substrate Tolbutamide, Batch 2
Description: as §1, §2, §3, §4

[4] = Oxidase activity testing against vanoxerine; details: for Average % conversion: substrate Vanoxerine, Batch 2
Description: as §1, §2, §3, §4

[5] = Oxidase activity testing against celecoxib; details: substrate Celecoxib; Batch 2
Description: as §1, §2, §3, §4

[6] = Oxidase activity testing against BIRB796; details: substrate BIRB796; Batch 2
Description: as §1, §2, §3, §4

[7] = Oxidase activity testing against clarithromycin; details: for Average % conversion: substrate Clarithromycin, Batch 2
Description: as §1, §2, §3, §4

[8] = Oxidase activity testing against ebastine; details: for Average % conversion: substrate Ebastine, Batch 2
Description: as §1, §2, §3, §4

[9] = Oxidase activity testing against solifenacin; details: for Average % conversion: substrate Solifenacin, Batch 2
Description: as §1, §2, §3, §4

[10] = Oxidase activity testing against ruxolitinib; details: substrate Ruxolitinib; Batch 2
Description: as §1, §2, §3, §4

[11] = Oxidase activity testing against sclareol; details: for Average % conversion: substrate Sclareol, Batch 2, UPLC-MS UV or MS peak areas
Description: as §1, §2, §3, §4

[12] = Oxidase activity testing against 7-ethoxycoumarin; details: for Average % conversion: substrate 7-ethoxycoumarin, Batch 2
Description: as §1, §2, §3, §4

[13] = Oxidase activity testing against perindopril; details: for Average % conversion: substrate Perindopril, Batch 2
Description: as §1, §2, §3, §4

[14] = Oxidase activity testing against tofacitinib; details: substrate Tofacitinib; Batch 2
Description: as §1, §2, §3, §4

[15] = Oxidase activity testing against efavirenz; details: for Average % conversion: substrate Efavirenz, Batch 2
Description: as §1, §2, §3, §4

[16] = Oxidase activity testing against buparvaquone; details: for Average % conversion: substrate Buparvaquone, Batch 2
Description: as §1, §2, §3, §4

[17] = Oxidase activity testing, lyophilised recombinant P450/ferredoxin SeuF08/ferredoxin reductase SCF15A against ambroxide; details: for +16 Da (1.50 min) 253 m/z / +16 Da (1.60 min) 253 m/z / +16 Da (2.04 min) 253 m/z: oxidised ambroxide product; for +16 Da (1.50 min) 253 m/z / +16 Da (1.60 min) 253 m/z / +16 Da (2.04 min) 253 m/z / Ambroxide (2.22 min) 237 m/z: relative MS peak area; for Ambroxide (2.22 min) 237 m/z: remaining substrate, 0.1 mg/ml ambroxide, 27° C., 16-20 hours; for Average % conversion: substrate ambroxide, relative MS peak areas
Description: as §1, §2, §3
To confirm the identities of reaction products where known, their chromatographic retention time, mass and ultraviolet spectra were compared with those of authentic metabolite standards.
Representative results for the % conversions of ambroxide to oxidised (+16 Da) products for single point mutants at position T109 are shown in Table 2 below.

Row | Molecule | Average % conversion [1] [%] | Average % conversion [2] [%] | Average % conversion [3] [%] | Average % conversion [4] [%] | Average % conversion [5] [%] | Average % conversion [6] [%] | Average % conversion [7] [%] | Average % conversion [8] [%] | Average % conversion [9] [%] | Average % conversion [10] [%] | Average % conversion [11] [%] | Average % conversion [12] [%] | Average % conversion [13] [%] | Average % conversion [14] [%] | Average % conversion [15] [%] | Average % conversion [16] [%] | +16 Da (1.50 min) 253 m/z [17] [%] | +16 Da (1.60 min) 253 m/z [17] [%] | +16 Da (2.04 min) 253 m/z [17] [%] | Ambroxide (2.22 min) 237 m/z [17] [%] | other results
1 | B1 | 0 | 17.1 | 35.7 | 79.1 | 21.6 | 38.5 | 0.9 | 9.7 | 3 | 99.1 | 31 | 38 | 61.4 | 33.3 | 0 | – | – | – | – | – | conversion of perindopril compared to wild-type (in words) [13]: significantly increased conversion
2 | B2 | 1.6 | 66.8 | 56.1 | 88.8 | 35.6 | 90.6 | 23.3 | 10.4 | 25.9 | 99.2 | 84.5 | 20.2 | 45.6 | 40.8 | 1.2 | 31.5 | – | – | – | – | conversion of propanalol, not converted by wild-type (in words) [1]: achieved conversion; conversion of valsartan compared to wild-type (in words) [2]: significantly increased conversion; conversion of vanoxerine compared to wild-type (in words) [4]: significantly increased conversion; conversion of clarithromycin, not converted by wild-type (in words) [7]: achieved conversion; new product at 3.12 minutes (3″-O-demethylclarithromycin) from clarithromycin ([7]; chromatographic analysis, FIGS. 5 and 6): production of a new product; conversion of sclareol compared to wild-type (in words) [11]: significantly increased conversion; product at 1.42 minutes from sclareol ([11]; FIG. 7): increased production; product at 1.55 minutes from sclareol ([11]; FIG. 7): generated a new product; conversion of efavirenz, not converted by wild-type (in words) [15]: achieved conversion
3 | B3 | – | 14.3 | 77.6 | 44.5 | 39.1 | 36.3 | – | 17.4 | 33.6 | 98.6 | 52.7 | 67.2 | 46.5 | 67.5 | 1.8 | 54.7 | – | – | – | – | conversion of buparvaquone compared to wild-type (in words) [16]: significantly increased conversion; product at 1.97 minutes from buparvaquone (hydroxylation of a t-butyl methyl group) ([16]; FIG. 8): increased production; conversion of tolbutamide compared to wild-type (in words) [3]: significantly increased conversion; product at 1.38 minutes from ebastine ([8]; FIG. 9): increased production; conversion of solifenacin compared to wild-type (in words) [9]: significantly increased conversion; conversion of 7-ethoxycoumarin compared to wild-type (in words) [12]: significantly increased conversion
4 | B4 | – | – | – | – | – | – | – | – | – | – | – | – | – | – | – | – | 58.3 | 0.0 | 0.0 | 41.7 | Average % conversion [17]: 58.3%
5 | B5 | – | – | – | – | – | – | – | – | – | – | – | – | – | – | – | – | 58.6 | 0.9 | 2.3 | 38.2 | Average % conversion [17]: 61.7%
